According to patent publication US9428586B2, “Heparanase splice variant” (COMPUGEN LTD, priority 2010, dated 2016):

Tests used:
Type in all cases: cell-based, human
[1] = system: CAG myeloma, FaDu pharynx carcinoma and 293 cells; experiment: Colony formation in soft agar; settings: over expression in CAG myeloma, FaDu and 293 cells
Protocol: FIG. 4. T5 augments cell proliferation. A. BrdU incorporation. Morphology of control (Con), heparanase (Hepa)- and T5-infected CAG myeloma cell cultures is shown in the upper panels. […] Sub-confluent cultures of control (Vo), heparanase (Hepa)- and T5-infected CAG cells were grown in serum-free medium for 20 h followed by incubation with BrdU (1:1000) for 2 h. Cells were then fixed and immunostained with anti BrdU monoclonal antibody. Positively stained, red-brown nuclei were counted vs. blue, hematoxilin counter-stained nuclei. At least 1000 cells were counted for each cell type and the percentage of positively stained cells is noted in each panel. Fold increase in BrdU incorporation is shown graphically on the right panel. Gene silencing. 293 cells were transfected with anti-GFP (si-GFP), anti-heparanase (si-Hepa) or anti-T5 siRNA oligonucleotides and BrdU incorporation was evaluated as above except that cells were kept in serum-containing medium (lower panels). Note 2-fold decrease in BrdU incorporation following heparanase or T5 gene silencing (lower right panel). B. Colony formation in soft agar. […]
Three ml of DMEM containing 0.5% low melt agarose (Bio-Rad, Hercules, Calif.) and 10% fetal calf serum was poured into 60 mm petri dishes. […] Colonies were visualized and counted under a microscope after 2-5 weeks, as described.

Src [2] = experiment: Src phosphorylation (immunoblot, densitometry) in CAG myeloma cells; settings: infected CAG myeloma cells, serum-free
Protocol: (§1) FIG. 3. T5 augments Src phosphorylation. A. Over expression. CAG myeloma (left) and 293 (right) cells infected with heparanase (Hepa), T5, or control empty vector (Vo) were grown in the absence (−) or presence (+) of heparin (50 μg/ml) under serum-free conditions. Total cell lysates were subjected to immunoblotting applying anti-heparanase 1453 (upper and second panels), anti-phospho-Src (p-Src, third panels), anti-Src (fourth panels) anti-phospho-Erk (p-Erk, fifth panels), and anti-Erk2 (sixth panels) antibodies. Src phosphorylation index was calculated by densitometry analysis of phosphorylated Src levels divided by the total Src values. Data is presented as average fold increase ±SE of Src phosphorylation compared with control, Vo cells, set arbitrary to a value of 1 (lower panels) of five independent experiments. B. Gene silencing. Parental 293 cells were transfected with anti-heparanase, anti-T5, or control siRNAs. Total RNA was extracted and RT-PCR analysis was performed applying T5 (upper panel), heparanase (Hepa, second panel) and GAPDH (third panel) specific primers. Corresponding cell lysates were subjected to immunoblotting applying phospho-Src (p-Src, fourth panel), Src (fifth panel), phospho-Erk (p-Erk, sixth panel) and Erk2 (seventh panel) antibodies. Src phosphorylation index was calculated as above and is shown graphically in the lower panel. Note decreased Src phosphorylation levels upon T5 down regulation.
Preparation of cell lysates, protein blotting, and measurement of heparanase enzymatic activity were carried out as described previously (Zetser, A., et al., 2006, Cancer Res 66, 1455-1463; Fux, L., et al., 2009, Cancer Res 69, 1758-1767).

Src [3] = experiment: Src phosphorylation (immunoblot, densitometry) in 293 cells; settings: over expressing 293 cells, serum-free
Protocol: as §1, with “(-)” for “(−)”, “Data is presented as average fold increase ±SE of Src phosphorylation compared with control, Vo cells, set arbitrary to a value of 1 (lower panels) of five independent experiments.” left out, “regulation. […]” for “regulation.”

Erk = Erk phosphorylation (immunoblot) in CAG myeloma and 293 cells
Protocol: as §1, with “Note decreased Src phosphorylation levels upon T5 down regulation.” left out

B1: T5: novel splice variant of heparanase; truncated, enzymatically inactive 169 amino acid protein (protein, listed as Homo sapiens)
chain: MLLRSKPALPPPLMLLLLGPLGPLSPGALPRPAQAQDVVDLDFFTQEPLHLVSPSFLSVTIDANLATDPRFLILLGSPKLRTLARGLSPAYLRFGGTKTDFLIFDPKKESTFEERSYWQSQVNQDICKYGSIPPDVEEKLRLEWPYQEQLLLREHYQKKFKNSTYSSKK
colony number, size and cell density in soft agar [1]: markedly increased
Src phosphorylation increase vs control Vo cells (Src [2]): comparable induction of Src phosphorylation
Src phosphorylation enhancement vs control Vo cells (Src [3]): ~4 fold
Erk phosphorylation upon over expression (Erk): not affected
